# Experimental data published in the supplement of paper PMC11316812.
# ± gives the standard deviation of the averaged measurements.
# Tests used:
# MCF7 = experiment: percentage of EdU-negative (G0-arrested) nuclei per well, 72 h; higher = more G0 arrest; conditions: reference: sequence is the full UniProt precursor, the tested protein was the secreted form or ectodomain
# hTERT-HMEC = experiment: as above; conditions: reference: sequence is the full UniProt precursor, the tested protein was the secreted form or ectodomain
# [1] = protein concentration 0.0225 µM
# [2] = protein concentration 0.03125 µM
# [3] = protein concentration 0.3125 µM
# [4] = protein concentration 0.02632 µM
# [5] = protein concentration 0.2632 µM
# [6] = protein concentration 0.021155 µM
# [7] = protein concentration 0.21155 µM
# [8] = protein concentration 0.01625 µM
# [9] = protein concentration 0.1625 µM
# [10] = protein concentration 0.0175 µM
# [11] = protein concentration 0.018725 µM
# [12] = protein concentration 0.18725 µM
# 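Also: secreted proteins added to cultured cells, EdU pulse at the end, nuclei found by Hoechst imaging, EdU status from nuclear versus surrounding ring intensity ratio, PBS as neutral control.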
substance,measurement,setting,value
MHQMNAKMHFRFVFALLIVSFNHDVLGKNLKYRIYEEQRVGSVIARLSEDVADVLLKLPNPSTVRFRAMQRGNSPLLVVNEDNGEISIGATIDREQLCQKNLNCSIEFDVITLPTEHLQLFHIEVEVLDINDNSPQFSRSLIPIEISESAAVGTRIPLDSAFDPDVGENSLHTYSLSANDFFNIEVRTRTDGAKYAELIVVRELDRELKSSYELQLTASDMGVPQRSGSSILKISISDSNDNSPAFEQQSYIIQLLENSPVGTLLLDLNATDPDEGANGKIVYSFSSHVSPKIMETFKIDSERGHLTLFKQVDYEITKSYEIDVQAQDLGPNSIPAHCKIIIKVVDVNDNKPEININLMSPGKEEISYIFEGDPIDTFVALVRVQDKDSGLNGEIVCKLHGHGHFKLQKTYENNYLILTNATLDREKRSEYSLTVIAEDRGTPSLSTVKHFTVQINDINDNPPHFQRSRYEFVISENNSPGAYITTVTATDPDLGENGQVTYTILESFILGSSITTYVTIDPSNGAIYALRIFDHEEVSQITFVVEARDGGSPKQLVSNTTVVLTIIDENDNVPVVIGPALRNNTAEITIPKGAESGFHVTRIRAIDRDSGVNAELSCAIVAGNEENIFIIDPRSCDIHTNVSMDSVPYTEWELSVIIQDKGNPQLHTKVLLKCMIFEYAESVTSTAMTSVSQASLDVSMIIIISLGAICAVLLVIMVLFATRCNREKKDTRSYNCRVAESTYQHHPKRPSRQIHKGDITLVPTINGTLPIRSHHRSSPSSSPTLERGQMGSRQSHNSHQSLNSLVTISSNHVPENFSLELTHATPAVEQVSQLLSMLHQGQYQPRPSFRGNKYSRSYRYALQDMDKFSLKDSGRGDSEAGDSDYDLGRDSPIDRLLGEGFSDLFLTDGRIPAAMRLCTEECRVLGHSDQCWMPPLPSPSSDYRSNMFIPGEEFPTQPQQQHPHQSLEDDAQPADSGEKKKSFSTFGKDSPNDEDTGDTSTSSLLSEMSSVFQRLLPPSLDTYSECSEVDRSNSLERRKGPLPAKTVGYPQGVAAWAASTHFQNPTTNCGPPLGTHSSVQPSSKWLPAMEEIPENYEEDDFDNVLNHLNDGKHELMDASELVAEINKLLQDVRQS [Q9HCL0],percentage of EdU-negative,MCF7; [1],28.4 ± 2%
same,percentage of EdU-negative,MCF7; protein concentration 0.225 µM,32.5 ± 0.58%
same,percentage of EdU-negative,hTERT-HMEC; [1],3.86 ± 0.13%
same,percentage of EdU-negative,hTERT-HMEC; protein concentration 0.225 µM,11.6 ± 1.6%
MDFGLALLLAGLLGLLLGQSLQVKPLQVEPPEPVVAVALGASRQLTCRLACADRGASVQWRGLDTSLGAVQSDTGRSVLTVRNASLSAAGTRVCVGSCGGRTFQHTVQLLVYAFPDQLTVSPAALVPGDPEVACTAHKVTPVDPNALSFSLLVGGQELEGAQALGPEVQEEEEEPQGDEDVLFRVTERWRLPPLGTPVPPALYCQATMRLPGLELSHRQAIPVLHSPTSPEPPDTTSPESPDTTSPESPDTTSQEPPDTTSPEPPDKTSPEPAPQQGSTHTPRSPGSTRTRRPEISQAGPTQGEVIPTGSSKPAGDQLPAALWTSSAVLGLLLLALPTYHLWKRCRHLAEDDTHPPASLRLLPQVSAWAGLRGTGQVGISPS,percentage of EdU-negative,MCF7; [1],27.1 ± 4.2%
same,percentage of EdU-negative,MCF7; protein concentration 0.225 µM,26.3 ± 1.4%
same,percentage of EdU-negative,hTERT-HMEC; [1],5.3 ± 0.25%
same,percentage of EdU-negative,hTERT-HMEC; protein concentration 0.225 µM,5.85 ± 0.98%
MVKQIESKTAFQEALDAAGDKLVVVDFSATWCGPCKMIKPFFHSLSEKYSNVIFLEVDVDDCQDVASECEVKCMPTFQFFKKGQKVGEFSGANKEKLEATINELV,percentage of EdU-negative,MCF7; [2],25.2 ± 1.2%
same,percentage of EdU-negative,MCF7; [3],23.8 ± 1.9%
same,percentage of EdU-negative,hTERT-HMEC; [2],4.86 ± 0.3%
same,percentage of EdU-negative,hTERT-HMEC; [3],4.9 ± 0.23%
MRGLLVLSVLLGAVFGKEDFVGHQVLRISVADEAQVQKVKELEDLEHLQLDFWRGPAHPGSPIDVRVPFPSIQAVKIFLESHGISYETMIEDVQSLLDEEQEQMFAFRSRARSTDTFNYATYHTLEEIYDFLDLLVAENPHLVSKIQIGNTYEGRPIYVLKFSTGGSKRPAIWIDTGIHSREWVTQASGVWFAKKITQDYGQDAAFTAILDTLDIFLEIVTNPDGFAFTHSTNRMWRKTRSHTAGSLCIGVDPNRNWDAGFGLSGASSNPCSETYHGKFANSEVEVKSIVDFVKDHGNIKAFISIHSYSQLLMYPYGYKTEPVPDQDELDQLSKAAVTALASLYGTKFNYGSIIKAIYQASGSTIDWTYSQGIKYSFTFELRDTGRYGFLLPASQIIPTAKETWLALLTIMEHTLNHPY,percentage of EdU-negative,MCF7; [4],25.44 ± 0.046%
same,percentage of EdU-negative,MCF7; [5],27.3 ± 3%
same,percentage of EdU-negative,hTERT-HMEC; [4],5.61 ± 0.74%
same,percentage of EdU-negative,hTERT-HMEC; [5],8.13 ± 1.2%
MLSSVVFWGLIALIGTSRGSYPFSHSMKPHLHPRLYHGCYGDIMTMKTSGATCDANSVMNCGIRGSEMFAEMDLRAIKPYQTLIKEVGQRHCVDPAVIAAIISRESHGGSVLQDGWDHRGLKFGLMQLDKQTYHPVGAWDSKEHLSQATGILTERIKAIQKKFPTWSVAQHLKGGLSAFKSGIEAIATPSDIDNDFVNDIIARAKFYKRQSF [Q86SG7],percentage of EdU-negative,MCF7; [1],27.3 ± 1.4%
same,percentage of EdU-negative,MCF7; protein concentration 0.225 µM,25.6 ± 2.5%
same,percentage of EdU-negative,hTERT-HMEC; [1],4.33 ± 0.76%
same,percentage of EdU-negative,hTERT-HMEC; protein concentration 0.225 µM,5.09 ± 0.33%
MASVVLPSGSQCAAAAAAAAPPGLRLRLLLLLFSAAALIPTGDGQNLFTKDVTVIEGEVATISCQVNKSDDSVIQLLNPNRQTIYFRDFRPLKDSRFQLLNFSSSELKVSLTNVSISDEGRYFCQLYTDPPQESYTTITVLVPPRNLMIDIQKDTAVEGEEIEVNCTAMASKPATTIRWFKGNTELKGKSEVEEWSDMYTVTSQLMLKVHKEDDGVPVICQVEHPAVTGNLQTQRYLEVQYKPQVHIQMTYPLQGLTREGDALELTCEAIGKPQPVMVTWVRVDDEMPQHAVLSGPNLFINNLNKTDNGTYRCEASNIVGKAHSDYMLYVYDPPTTIPPPTTTTTTTTTTTTTILTIITDSRAGEEGSIRAVDHAVIGGVVAVVVFAMLCLLIILGRYFARHKGTYFTHEAKGADDAADADTAIINAEGGQNNSEEKKEYFI [Q9BY67],percentage of EdU-negative,MCF7; [1],24.5 ± 1.3%
same,percentage of EdU-negative,MCF7; protein concentration 0.225 µM,24.7 ± 1.1%
same,percentage of EdU-negative,hTERT-HMEC; [1],4.74 ± 0.29%
same,percentage of EdU-negative,hTERT-HMEC; protein concentration 0.225 µM,5.2 ± 0.79%
MSRQLLPVLLLLLLRASCPWGQEQGARSPSEEPPEEEIPKEDGILVLSRHTLGLALREHPALLVEFYAPWCGHCQALAPEYSKAAAVLAAESMVVTLAKVDGPAQRELAEEFGVTEYPTLKFFRNGNRTHPEEYTGPRDAEGIAEWLRRRVGPSAMRLEDEAAAQALIGGRDLVVIGFFQDLQDEDVATFLALAQDALDMTFGLTDRPRLFQQFGLTKDTVVLFKKFDEGRADFPVDEELGLDLGDLSRFLVTHSMRLVTEFNSQTSAKIFAARILNHLLLFVNQTLAAHRELLAGFGEAAPRFRGQVLFVVVDVAADNEHVLQYFGLKAEAAPTLRLVNLETTKKYAPVDGGPVTAASITAFCHAVLNGQVKPYLLSQEIPPDWDQRPVKTLVGKNFEQVAFDETKNVFVKFYAPWCTHCKEMAPAWEALAEKYQDHEDIIIAELDATANELDAFAVHGFPTLKYFPAGPGRKVIEYKSTRDLETFSKFLDNGGVLPTEEPPEEPAAPFPEPPANSTMGSKEEL,percentage of EdU-negative,MCF7; [6],34 ± 1.9%
same,percentage of EdU-negative,MCF7; [7],26.76 ± 0.05%
same,percentage of EdU-negative,hTERT-HMEC; [6],5.52 ± 0.95%
same,percentage of EdU-negative,hTERT-HMEC; [7],5.36 ± 0.59%
MQVSTAALAVLLCTMALCNQFSASLAADTPTACCFSYTSRQIPQNFIADYFETSSQCSKPGVIFLTKRSRQVCADPSEEWVQKYVSDLELSA,percentage of EdU-negative,MCF7; [8],25.6 ± 0.31%
same,percentage of EdU-negative,MCF7; [9],25.3 ± 0.67%
same,percentage of EdU-negative,hTERT-HMEC; [8],4.43 ± 0.47%
same,percentage of EdU-negative,hTERT-HMEC; [9],5.62 ± 0.9%
MPLLWLRGFLLASCWIIVRSSPTPGSEGHSAAPDCPSCALAALPKDVPNSQPEMVEAVKKHILNMLHLKKRPDVTQPVPKAALLNAIRKLHVGKVGENGYVEIEDDIGRRAEMNELMEQTSEIITFAESGTARKTLHFEISKEGSDLSVVERAEVWLFLKVPKANRTRTKVTIRLFQQQKHPQGSLDTGEEAEEVGLKGERSELLLSEKVVDARKSTWHVFPVSSSIQRLLDQGKSSLDVRIACEQCQESGASLVLLGKKKKKEEEGEGKKKGGGEGGAGADEEKEQSHRPFLMLQARQSEDHPHRRRRRGLECDGKVNICCKKQFFVSFKDIGWNDWIIAPSGYHANYCEGECPSHIAGTSGSSLSFHSTVINHYRMRGHSPFANLKSCCVPTKLRPMSMLYYDDGQNIIKKDIQNMIVEECGCS,percentage of EdU-negative,MCF7; [2],26.6 ± 1.6%
same,percentage of EdU-negative,MCF7; [3],27.8 ± 1.4%
same,percentage of EdU-negative,hTERT-HMEC; [2],5.64 ± 0.18%
same,percentage of EdU-negative,hTERT-HMEC; [3],5.29 ± 1.4%
P16144,percentage of EdU-negative,MCF7; [10],24.1 ± 3.2%
same,percentage of EdU-negative,MCF7; protein concentration 0.175 µM,28.6 ± 0.6%
same,percentage of EdU-negative,hTERT-HMEC; [10],5.31 ± 0.28%
same,percentage of EdU-negative,hTERT-HMEC; protein concentration 0.175 µM,5.29 ± 0.16%
MQRGAALCLRLWLCLGLLDGLVSGYSMTPPTLNITEESHVIDTGDSLSISCRGQHPLEWAWPGAQEAPATGDKDSEDTGVVRDCEGTDARPYCKVLLLHEVHANDTGSYVCYYKYIKARIEGTTAASSYVFVRDFEQPFINKPDTLLVNRKDAMWVPCLVSIPGLNVTLRSQSSVLWPDGQEVVWDDRRGMLVSTPLLHDALYLQCETTWGDQDFLSNPFLVHITGNELYDIQLLPRKSLELLVGEKLVLNCTVWAEFNSGVTFDWDYPGKQAERGKWVPERRSQQTHTELSSILTIHNVSQHDLGSYVCKANNGIQRFRESTEVIVHENPFISVEWLKGPILEATAGDELVKLPVKLAAYPPPEFQWYKDGKALSGRHSPHALVLKEVTEASTGTYTLALWNSAAGLRRNISLELVVNVPPQIHEKEASSPSIYSRHSRQALTCTAYGVPLPLSIQWHWRPWTPCKMFAQRSLRRRQQQDLMPQCRDWRAVTTQDAVNPIESLDTWTEFVEGKNKTVSKLVIQNANVSAMYKCVVSNKVGQDERLIYFYVTTIPDGFTIESKPSEELLEGQPVLLSCQADSYKYEHLRWYRLNLSTLHDAHGNPLLLDCKNVHLFATPLAASLEEVAPGARHATLSLSIPRVAPEHEGHYVCEVQDRRSHDKHCHKKYLSVQALEAPRLTQNLTDLLVNVSDSLEMQCLVAGAHAPSIVWYKDERLLEEKSGVDLADSNQKLSIQRVREEDAGRYLCSVCNAKGCVNSSASVAVEGSEDKGSMEIVILVGTGVIAVFFWVLLLLIFCNMRRPAHADIKTGYLSIIMDPGEVPLEEQCEYLSYDASQWEFPRERLHLGRVLGYGAFGKVVEASAFGIHKGSSCDTVAVKMLKEGATASEHRALMSELKILIHIGNHLNVVNLLGACTKPQGPLMVIVEFCKYGNLSNFLRAKRDAFSPCAEKSPEQRGRFRAMVELARLDRRRPGSSDRVLFARFSKTEGGARRASPDQEAEDLWLSPLTMEDLVCYSFQVARGMEFLASRKCIHRDLAARNILLSESDVVKICDFGLARDIYKDPDYVRKGSARLPLKWMAPESIFDKVYTTQSDVWSFGVLLWEIFSLGASPYPGVQINEEFCQRLRDGTRMRAPELATPAIRRIMLNCWSGDPKARPAFSELVEILGDLLQGRGLQEEEEVCMAPRSSQSSEEGSFSQVSTMALHIAQADAEDSPPSLQRHSLAARYYNWVSFPGCLARGAETRGSSRMKTFEEFPMTPTTYKGSVDNQTDSGMVLASEEFEQIESRHRQESGFSCKGPGQNVAVTRAHPDSQGRRRRPERGARGGQVFYNSEYGELSEPSEEDHCSPSARVTFFTDNSY,percentage of EdU-negative,MCF7; [11],25.2 ± 1.4%
same,percentage of EdU-negative,MCF7; [12],25.66 ± 0.24%
same,percentage of EdU-negative,hTERT-HMEC; [11],5.19 ± 0.73%
same,percentage of EdU-negative,hTERT-HMEC; [12],6.63 ± 1.2%
